In the supplement of paper PMC12764529:
± gives the half width of the 95% confidence interval.

experiment: folding stability dG unfold (combined trypsin and chymotrypsin); higher = more stable
In short: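 Unfolding free energy was derived, per protease or combined, against a sequence-predicted unfolded-state K50 and a shared folded-state K50, starting from K50 inferred by Bayesian fitting of sequencing counts. Digestion with trypsin and chymotrypsin was carried out on designed mini-proteins under 80 residues without cysteine in a PA-tagged cDNA display construct. Only designs with AlphaFold2 dimer inter-PAE above 15 were kept.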

Sequence	folding stability dG unfold [kcal/mol]
SAGGKSKTIPIQPGDIRKVRDQLKELPDEGDNVRIHNPDNGKEREMDPDQLDDNVEKNGEPPTIHVRSAGGS [r16_263_TrROS]	< -1
SAGGSAGGSAGGAVGPDVGLPDAPVRFRNPSDDKVFTAYVPAGANFADLAKKYGVEIEPSAGGSAGGSAGGS [r10_202_TrMRF]	0.167 ± 0.15
SAGGMPKKITKLELLSETYDPLTNTYTVTVRATFDDGTEKVIELTLPRSEYEKLSKEEIKKRAIDLLLSAGG [r13_512_JUSTAS]	5.52 ± 0.34
SAGGSAGGSAGGLPINARPPNIAEVIRALRESGRYRVVEIRPFGDGAVIRVEKDGVPLESAGGSAGGSAGGS [r10_695_TrMRF]	0.0741 ± 0.34
SGGMTPEQMIRHVLREARANNPGKKIEISWNSIQKNFPHPMSPEEIKKELKEEDGIKDVTIQPIPPNDPFSA [r9_738_TrROS]	< -1
SAGMPVLVSAPIPLARGPDGVARIDPALVRALAEAAGFTGRVESVEVRPLPDSYLVAVRLPDSVLLGESAGG [r19_398_TrMRF]	-0.31 ± 0.11
SAGGSAGGSAEKDVKLLDVEELEEERVALVEFPVDPKVVRIKFDKDMTIDEIKKKAKELAGSAGGSAGGSAG [r3_142_TrMRF]	0.0889 ± 0.15
SAGGSAGGSAARAYTDVDPVPSTLPNGERVVRVTEAGTGTTSDVPLEALADLDRGAGVTVPPSAGGSAGGSA [r18_288_JUSTAS]	-0.249 ± 0.069
SAGGSANAEEIADWLQDRGFKEVEIEKDPENGNVTVEIRNPGGYEWELTINPKNPKITEIEPRPKKSAGGSA [r15_648_TrROS]	-0.523 ± 0.42
SAGGSAGGPIRIDPEDGRIRNNGQPYKFDKIEDIEPNENNKSIRLTIRMKNGKEHKQPIPADDISAGGSAGG [r6_682_TrROS]	< -1
SAGNPSLKLKTETQVEVTEVSESVLPDGGYTLTKSKFTVTTTIYDTTKPKVLSTETTEETETVATPLVSAGG [r19_136_JUSTAS]	0.0701 ± 0.07
QIPPGAKVEFGNKEIEVPPGKELMIFNGHIMTQDDMEDMMKNMPDGMEMYRYKVEDNKGKIDKVRRMRMKPS [r1_304_TrROS]	< -1
SAGGDARVARARIRLTRPFPDEDGVVRWEPVVPPGDPVEVGLVLEDDTLVANAVFDGRPVLATVRLESAGGS [r16_500_TrMRF]	< -1
SAGGSAGGSAGGTVKELMKKLPFGAQIEIDEIEHDKGRIEIPIRVENMPPEWREKLRKLSAGGSAGGSAGGS [r10_733_TrROS]	-0.305 ± 0.23
SAGGAKVTEVKVENGYVTVTVDGKLVAKAPPPPPPPKVRVRNADGEEEERSLEDLLAENPENLEIELESAGG [r13_802_TrROS_Hall]	-0.0384 ± 0.28
SAGGSAGGSAGMVVETEVLETTPPGRTVRTRTTTREKTPDNAPVTTESESVTEVPSPPLESAGGSAGGSAGG [r11_689_JUSTAS]	0.273 ± 0.081
SAGGSAGGSSKTVPLKSEEEVKAVLEKLPPDAEYTVTDSEGKSKKVSPDEISFTPDPLTITVSSAGGSAGGS [r12_907_JUSTAS]	-0.131 ± 0.092
SAGGSAGGSAGMRLLVEKPEGPVPTVTEVEVPLPEGDKARLEEVKEELKKKGYKKVIFLDSAGGSAGGSAGG [r11_196_JUSTAS]	< -1
SAGGSAGGSAGGGPPLPLRVEREEKVEKTPDDRVLIKRKVTVELPDRPLSEEESIEILLESAGGSAGGSAGG [r7_293_JUSTAS]	-0.415 ± 0.25
SAGGSAGGMKTKTYTIPLSQVSSIDPSGTVSEEEVKALGLPPNFKATVVPLPGSEEAVEVTVPESAGGSAGG [r6_553_JUSTAS]	-0.381 ± 0.18
SAGGSAGGPKWRRYTIPLDKIKEIDPGGTVTLDDIQDLGLPPDHEIRVVPRPDGEPWVSIEVPYSAGGSAGG [r6_553_TrROS]	0.201 ± 0.11
SAGMVKINVAKLPDGKYVITVVDANDGTPLLELPVDSPEGAEKAAKAIAEELKKKYPDATVEVDYTDFESAG [r5_383_TrMRF]	4.13 ± 0.64
SAGGSAGGSAPPIPIQIKIERPDPDGEKRERKIPVWIPPNNIDEIKDEAEEEGWRVKEVTISAGGSAGGSAG [r3_453_TrROS]	-0.477 ± 0.18
SAGGSAGGSAGGVAEWIQEQGFKVKDIPVPRPPNGNPWVKVEVEHDGGKRTYEIPLDEISAGGSAGGSAGGS [r10_35_TrROS]	0.0288 ± 0.14

Sequence	folding stability dG unfold [kcal/mol]
SAGGSAGGSAGGNVPIPFLPEGFDVEVKKIEVPTPGKVKLVLVPKNSDEEFELEFSPEELSAGGSAGGSAGG [r7_342_TrMRF]	< -1
SAGGSPPYVNISMRRTPNGNMPLKVEIYDKDNEPVAEQEIEIPDMEPGEQWNFTIPIEPNMKLRIESAGGSA [r2_288_TrROS]	-0.132 ± 0.12
SAGPLEELLARAERVEEDPSTGKRLVYTSDPELVRAALAEGAPDYTLTESPDDRRSALINFPPLPPGVLSAG [r14_115_JUSTAS]	-0.0125 ± 0.14
SAGGMILIERDGRERVLEKAREAVEAEAARARAGDVEDAVLLVDLRVVDPVTGEWEELPVLARVPPASAGGS [r8_163_TrMRF]	-0.0473 ± 0.11
SAGGSAMKIEVEEFPVLVPPELIPELKDKPGAIVKVKKVKFYAEAPEEEREKLKKELEEKTGIKTESAGGSA [r15_347_TrMRF]	< -1
SAGGSAGGSAGGSLVSTSPLPSSSTLVTEKGPSPEVTVTVVTVKPGGSRSVTTLPVSESSAGGSAGGSAGGS [r10_140_JUSTAS]	-0.143 ± 0.12
SAGGSAGGSAGGSVEIRDARIELGDNTLRIEISFPDGGTRRIEIEVEPVPPLPPSLLDRSAGGSAGGSAGGS [r4_372_TrMRF]	< -1
SAGGLVREAAAEAGATGVDIREEVPDPNGGTVVTVLPRPGLSPEEAAAVRARIEAAIAEREPGATVVLESAG [r5_101_JUSTAS]	-0.142 ± 0.11
SAGGSAGGSAGMKVFIFKDPEKAIEAIKEFAGKNGVKYKIIEIETTPDGYVKIKVEFEPISAGGSAGGSAGG [r11_304_TrMRF]	5.48 ± 0.25
SAGGSAGGSMVVTERSVRPVPRLVRTSDPSTGSSSVHLDPGAVETVRVIEEPPTPELLANTGASAGGSAGGS [r20_172_JUSTAS]	< -1
SAGMSSTPQKIVRTTGSTPLPDGSAVSTTTTTYSDGSSTVTTAIPGGLETRATVPPDGTVTTTTAPLLGSAG [r5_168_JUSTAS]	-0.422 ± 0.26
SAGGTTTRTTVYFDDGKVYELTDPEEVEKTIKEKLGKNYKIVSEEEYTEPSPDGPPLPARRLKLKKKSAGGS [r16_408_JUSTAS]	< -1
SAGGSAGGSAGGGERRRVLHINPEDGYIQRMEFDPDDGEPTGSETVPFKSPEDALDKLIDSAGGSAGGSAGG [r7_105_TrROS]	-0.152 ± 0.2
SAGVEPTPDGKWRIEINPEEGHIRVRMKNGEPHEIPFPEGSLDDFADEIAEKMGFPPDKPFKIDEIEIWSAG [r5_923_TrROS]	-0.273 ± 0.19
SASLTPVGPGPDSVVTADPSTGKLYRLEPADGRLTVTTTTFAPGPAAPAPTTTTLPLSPEEAAALRALLSAG [r14_245_JUSTAS]	< -1
SAGMMRVEVFGDGELLEVTELDGDTVEVPVPPERHRVRVFAPGDDRAAEAEVDPAKGVVVLKVPADARISAG [r5_469_TrMRF]	-0.821 ± 0.38
SAGGSAGGIWIPADEFKGQPIKVRIKHNGNERPIEEVKIKSHPDGFVFIEFPPELPENMKIEIESAGGSAGG [r6_630_TrROS]	-0.0114 ± 0.15
SAGGSAGGSAGGSSVVIVADSAEEAKAALKELGIKDAKVVPLKPVKVFTDEQLKELKKKSAGGSAGGSAGGS [r4_101_TrROS_Hall]	0.276 ± 0.28
SAGGSAGGSAGIKIYAPGFPGMPVEIERDPDEPNVIKIKIKGPDNGEPQERTFPADDLEISAGGSAGGSAGG [r17_341_TrROS]	-0.169 ± 0.28
AARSVDVEVEELSTVTPAGGRTRLLRVRAYVPETGRTAEVPYRAVLLPDGSERPFGTAEELADRIARLLVSS [r1_77_TrMRF]	-0.0373 ± 0.12
SAGDYDVEKDPDGYRVEHKNGDKRYVPPVPPPIPVVMIPIKDPEDLDEFANELGLNITDISDDWITMPASAG [r5_328_TrROS]	-0.158 ± 0.27
SAGGSAGGSARIDFPAIRRLLGSEAPAEDVVEAVEVIAKELAEELNLPDVEVDPRVVAPDELESAGGSAGGS [r12_666_TrMRF]	0.102 ± 0.22
SAGGSAGGMVKTYKTDKETAIELAEKIKKQGVKVEITPHPDSTLLTITINEPKIDPKNSPNIIISAGGSAGG [r6_392_JUSTAS]	< -1
